The target in assay [1] is West Nile virus strain USA99b (strain 385-99), whole virus (West Nile virus strain 385-99 (USA99b)). The assay is described as follows: cell-based or functional assay.
Assay [2] shares this target.
The target is the same in assay [3]. As to the kind of experiment: ELISA on irradiated WNV; IgG1 at 0.039 µg/ml.
Assay [4] shares this target. The assay is described as follows: ELISA on irradiated WNV; IgG1 at 0.078 µg/ml. On the technique in general: ELISA stands for enzyme-linked immunosorbent assay.
Assay [5] shares this target. As to the kind of experiment: ELISA on irradiated WNV; IgG1 at 0.310 µg/ml.
Assay [6] has the same target. The assay is described as follows: ELISA on irradiated WNV; IgG1 at 0.630 µg/ml.
Assay [7] shares this target. As to the kind of experiment: ELISA on irradiated WNV; IgG1 at 1.250 µg/ml.
Assay [8] shares this target. As to the kind of experiment: ELISA on irradiated WNV; IgG1 at 2.500 µg/ml.
For assay [9] the target is unchanged. The assay is described as follows: ELISA on irradiated WNV; IgG1 at 5.000 µg/ml.
The target is the same in assay [10]. As to the kind of experiment: ELISA on irradiated WNV; IgG1 at 10.000 µg/ml.
For assay [11] the target is unchanged. As to the kind of experiment: ELISA on irradiated WNV; IgG1 at 0.000 µg/ml (no antibody).
For assay [12] the target is unchanged. The assay is described as follows: ELISA on irradiated WNV; IgG1 at 0.160 µg/ml (printed 0.1.60).
Assay [13] concerns the target West Nile virus CAR82 (strain ArB3573/82) (West Nile virus strain ArB3573/82). The assay is described as follows: cell-based or functional assay.
Assay [14] has as its target West Nile virus FRA00 (strain PaAn001) (West Nile virus strain PaAn001). As to the kind of experiment: cell-based or functional assay.
The target of assay [15] is West Nile virus MAD78 (strain DakAnMg798) (West Nile virus strain DakAnMg798). As to the kind of experiment: cell-based or functional assay.
Assay [16] addresses West Nile virus SEN90 (strain ArD-76104) (West Nile virus strain ArD-76104). The assay is described as follows: cell-based or functional assay.
For assay [17], the target named is West Nile virus TUN97 (strain paH001) (West Nile virus strain paH001). As to the kind of experiment: cell-based or functional assay.
Assay [18] deals with West Nile virus strain USA99b (strain 385-99), whole virus (West Nile virus strain 385-99 (USA99b)). As to the kind of experiment: cell-based or functional assay. This is another data set of the same source.
For assay [19] the target is unchanged. The assay is described as follows: ELISA on irradiated WNV; IgG1 at 20.000 µg/ml.
Assay [20] has the same target. The assay is described as follows: ELISA on irradiated WNV; IgG1 supernatant diluted 1:5.
Assay [21] has the same target. The assay is described as follows: ELISA on irradiated WNV; IgG1 supernatant diluted 1:25.
Assay [22] has the same target. As to the kind of experiment: ELISA on irradiated WNV; IgG1 supernatant diluted 1:125 (printed 1.125).
Assay [23] has the same target. This is another data set of the same source.

Read-outs that look alike come from different tables or passages of the source.

B1: CR4361 (antibody, V domains shown)
VH: EVQLVQSGAEVKKPGESLKISCKASGFSFSTYWIGWVRQMPGKGLEWMGIIYPADSDTRYSPSFQGQVTISADKSISTAYLQWSSLKASDTAMYYCARLRGPYYDFWNGYRETHDAFNVWGQGTMVTVSS
VL: DVVMTQSPDSLAVSLGERATINCKSSQNILDNSDNKNFLAWYQQKPGQPPKLLIYWASARESGVPDRFSGSGSGTDFTLTISSLQAEDVALYYCQQYYNTPITFGQGTRLEIKR
As to B1, in assay [1], the PRNT50 is 2.03 µg/mL and the PRNT90 is more than 100 µg/mL.

B2: CR4353 (antibody, V domains shown)
VH: QVQLVESGGGVVQPGRSLRLSCAASGFTFSNYAMHWVRQAPGKGLEWVAVISYDGGNKYYADSVKGRFTMSRDNSKNTLYLQMNSLRAEDTAVYYCARDFWSGYSMVDSYYYYMDVWGQGTTVTVSS
VL: ETTLTQSPGTLSLSPGERATLSCRASQSVSNTFLAWYQQKPGQAPRLLIYGASSRATGIPDRFSGSGSGTDFTLTISRLEPEDFAAYYCQQYGSSLTFGPGTKVDIKR
Regarding B2, in assay [2], the Kd is 6.5 nM. In assay [1], this molecule gave a PRNT50 of 0.026 µg/mL. Moreover, in assay [1], the PRNT90 was 36.4 µg/mL. Further, the OD 492nm in assay [3] was 0.595 OD 492nm; in assay [4], 0.734 OD 492nm; in assay [5], 1.17 OD 492nm; in [6], 1.33 OD 492nm; in [7], 1.42 OD 492nm; in assay [8] it was 1.43 OD 492nm. The OD 492nm was determined as 1.55 OD 492nm in assay [9], 1.57 OD 492nm in assay [10], 0.003 OD 492nm in assay [11] and 1.07 OD 492nm in assay [12].

B3: CR4374 (antibody, V domains shown)
VH: QITLKESGPTLVKPTQTLTLTCTFSGFSLSTSGVGVGWIRQPPGKALEWLAVIYWNDDKLYRPSLKSRLTITKDTSKNQVVLTMTKMDPVDTATYYCAHRHRYYDISGYYRLFSDAFDIWGQGTMVTVSS
VL: QSVLTQPPSVSGAPGQRVTISCTGSSSNIGAGYDVHWYQQLPGTAPKLLIYGNSNRPSGVPDRFSGSKSGTSASLAITGLQAEDEADYYCQSYDSSLSGSVFGGGTKLTVLG
As for B3, the Kd in assay [2] came to 56 nM. Besides, the PRNT50 in assay [1] came out at 0.18 µg/mL; in assay [13], 0.14; in assay [14] it was 0.11; in assay [15], 0.12; in assay [16] it was 0.29; in [17] it was 0.03. The same molecule yielded a PRNT50 in assay [18] of 0.17. Further, the PRNT90 in assay [1] is 0.95 µg/mL; in [13] it was 2.9; in assay [14] it was 1.36; in assay [15], 4.12; in [16], 3.92; in [17], 0.22. This molecule yielded a PRNT90 in [18] of 0.82. Also, the OD 492nm was 0.458 OD 492nm in assay [3]; 0.729 OD 492nm in assay [4]; 1.24 OD 492nm in [5]; 1.45 OD 492nm in assay [6]; 1.5 OD 492nm in assay [7]; 1.58 OD 492nm in assay [8]. The OD 492nm turned out to be 1.65 OD 492nm in [9]; 1.72 OD 492nm in assay [10]; 1.69 OD 492nm in assay [19]; 2.32 OD 492nm in assay [20]; 2.27 OD 492nm in assay [21]; 0.003 OD 492nm in [11]. In addition, the OD 492nm in assay [12] is 0.997 OD 492nm; in [22] it was 2.12 OD 492nm.

B4: CR5074 (antibody, V domains shown)
VH: QITLKESGPTLVKPTQTLTLTCTFSGFSLSTSGVGVGWIRQPPGKALEWLAVIYWNDDKLYRPSLKSRLTITKDTSKNQVVLTMTKMDPVDTATYYCAHRHRYYDISGYYRLFSDAFDIWGQGTMVTVSS
VL: QSVLTQPPSVSGAPGQRVTISCTGSSSNIGTGYDVHWYQQLPGTAPKLLIYADTNRPSGVPDRFSGSKSGTSASLAITGVQAEDEADYYCQSYDTSLTGWVFGGGTKVTVLG
B4 gave a dissociation constant (Kd) in assay [23] of 3.9 nM. In addition, in assay [1], the PRNT50 turned out to be 0.013 µg/mL and the PRNT90 was 0.067 µg/mL.

B5: CR5085 (antibody, V domains shown)
VH: QITLKESGPTLVKPTQTLTLTCTFSGFSLSTSGVGVGWIRQPPGKALEWLAVIYWNDDKLYRPSLKSRLTITKDTSKNQVVLTMTKMDPVDTATYYCAHRHRYYDISGYYRLFSDAFDIWGQGTMVTVSS
VL: QSVVTQPPSVSGAPGQRVTISCTGSSSNIGAGYDVHWYQQLPGTAPKLLIYGNSNRPSGVPDRFSGSKSGTSASLAITGLQAEDETDYYCQSYDSSLNGWVFGGGTKLTVLG
Molecule B5 showed a Kd in [23] of 3.7 nM. Moreover, in assay [1], the PRNT50 was 0.015 µg/mL and the PRNT90 worked out at 0.077 µg/mL.

B6: CR5080 (antibody, V domains shown)
VH: QITLKESGPTLVKPTQTLTLTCTFSGFSLSTSGVGVGWIRQPPGKALEWLAVIYWNDDKLYRPSLKSRLTITKDTSKNQVVLTMTKMDPVDTATYYCAHRHRYYDISGYYRLFSDAFDIWGQGTMVTVSS
VL: QSVLTQPPSVSGAPGQRVTISCTGSSSNIGAGYDVHWYQQLPGTAPKLLIYGNSNRPSGVPDRFSGSKSGTSASLAITGLQAEDEADYYCQSYDSSLSGWAFGGGTKLTVLG
For the molecule B6, in [23], the Kd was 2.7 nM. Moreover, in [1], the PRNT50 was found to be 0.016 µg/mL and the PRNT90 came out at 0.08 µg/mL.

B7: CR5088 (antibody, V domains shown)
VH: QITLKESGPTLVKPTQTLTLTCTFSGFSLSTSGVGVGWIRQPPGKALEWLAVIYWNDDKLYRPSLKSRLTITKDTSKNQVVLTMTKMDPVDTATYYCAHRHRYYDISGYYRLFSDAFDIWGQGTMVTVSS
VL: QSVVTQPPSVSGAPGQRITISCTGSSSNIGAGYDVHWYQQLPGTAPKFLIYGNSNRPSGVPDRFSGSKSGTSASLAITGLQAEDEADYYCQSYDSSLSGWVFGGGTKLTVLG
Turning to B7, the Kd in assay [23] turned out to be 1.7 nM. In assay [1], the PRNT50 turned out to be 0.017 µg/mL and the PRNT90 came out at 0.087 µg/mL.

What is called Kd is a measure of binding affinity in units of concentration.
